Changes are numbered by the printed parent chain. Names may count otherwise. Read-outs that look alike come from different tables or passages of the source. Values belong to the molecule of their own block, whether it stands above or below them.
Legend:
[1] = Mutant probe screening: baseline fluorescence ratio Ro and fatty acid response phenotype; assay type: binding; conditions: 7 FFA: AA, LNA, LA, OA, PA, POA, SA
Protocol: The intensity ratio (“R” value) for a given probe is determined. The ratio is calculated using the following formula: R=Fλ1/Fλ2 wherein, Fλ1, is the measured fluorescence intensities (intensity of sample with probe present minus intensity of sample without probe present) at wavelength 1 and Fλ2 is the measured fluorescence intensities (intensity of sample with probe present minus intensity of sample without probe present) at wavelength 2. Then, for a given probe, ΔR, the difference in R value between the measurement in the presence of the analyte and in the absence of the analyte, is calculated as follows: ΔR=R+analyte−R0 The ΔR value for a given probe is then compared to a reference probe, for example, ADIFAB or ADIFAB2, by ΔR/ΔRreference. […] Measurements of fluorescence intensities are obtained using standard techniques.
Plates were prepared and read in two stages. […] The background fluorescence was then measured at the same wavelengths as used for ADIFAB2 using a Fluorolog-3 spectrofluorometer with an external Micromax 384 fluorescence plate reader (Jobin Yvon). In the second stage, 30 μL aliquots of the mutant probes were added to multiple wells of the plate, one for each fatty acid and one with fatty acid free BSA only, and the fluorescence intensity at each wavelength was again measured on the plate reader. […]

[2] = Probe fluorescence ratio response to linolenate:BSA complex, relative to ADIFAB2 (ΔR/ΔRAD2); assay type: binding; conditions: fluorescence response (R-Ro) relative to ADIFAB2, linolenate
Method in brief: (§1)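 Probe ratio shift relative to ADIFAB2, using FFA:BSA complexes that buffer unbound fatty acid at 100–1000 nM. Readings at 6 μM BSA in HEPES, background-corrected.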

[3] = Probe fluorescence ratio response to oleate:BSA complex, relative to ADIFAB2 (ΔR/ΔRAD2); assay type: binding; conditions: fluorescence response (R-Ro) relative to ADIFAB2, oleate
Method in brief: as §1

[4] = Probe fluorescence ratio response to palmitoleate:BSA complex, relative to ADIFAB2 (ΔR/ΔRAD2); assay type: binding
[5] = Probe fluorescence ratio response to arachidonate:BSA complex, relative to ADIFAB2 (ΔR/ΔRAD2); assay type: binding; conditions: fluorescence response (R-Ro) relative to ADIFAB2, arachidonate
Method in brief: as §1

[6] = Probe fluorescence ratio response to linoleate:BSA complex, relative to ADIFAB2 (ΔR/ΔRAD2); assay type: binding; conditions: fluorescence response (R-Ro) relative to ADIFAB2, linoleate
Method in brief: as §1

[7] = Probe fluorescence ratio response to stearate:BSA complex, relative to ADIFAB2 (ΔR/ΔRAD2); assay type: binding
[8] = Probe fluorescence ratio response to palmitate:BSA complex, relative to ADIFAB2 (ΔR/ΔRAD2); assay type: binding; conditions: fluorescence response (R-Ro) relative to ADIFAB2, palmitate
Method in brief: as §1

[9] = Binding isotherm: probe titrated with UCB, Kd
Protocol: (§2) Larger preparations of select probes were prepared for quantitative determination of binding affinities. Binding isothermns were performed by measuring the fluorescence intensity for 1 μM of a given probe as the probe was titrated with known quantities of UCB. […] Table 3 lists the Kd values and mutations for some example probes. […] This property was confirmed by titration of a mixture of 0.5 μM UCB and 1 μM L2P14F7 with sodium oleate. […] Oleic acid is the most abundant FFA in serum, and measurements of normal serum samples indicate that typical unbound concentrations of oleic acid are less than 1 nM. By using non-responsive probes from FFA screening to conduct a secondary screening with other unbound analytes, a UCB-sensitive probe that has a negligible response to the major FFA in blood has been generated from a rI-FABP-L72A mutant.

[10] = Screening of FFA-insensitive probes for response to UCB:BSA complexes (ΔI/Io); assay type: binding; conditions: fractional change in fluorescence intensity; for ΔI/Io 1:1 UCB:BSA 440 nm / ΔI/Io 1:1 UCB:BSA 500 nm: UCB:BSA 1:1; for ΔI/Io 1:1 UCB:BSA 440 nm / ΔI/Io 1:2 UCB:BSA 440 nm: emission 440 nm; for ΔI/Io 1:1 UCB:BSA 500 nm / ΔI/Io 1:2 UCB:BSA 500 nm: emission 500 nm; for ΔI/Io 1:2 UCB:BSA 440 nm / ΔI/Io 1:2 UCB:BSA 500 nm: UCB:BSA 1:2
Protocol: A probe for unbound unconjugated bilirubin (UCBu) was developed and used to measure concentrations of UCBu in plasma spiked with a defined quantity of unconjugated bilirubin (UCB). Using 384-well plates, 335 mutant probes that were insensitive to FFA were screened for their response to UCB:BSA complexes at UCB:BSA ratios of 1:1 and 1:2 in aqueous buffer. All probes were prepared from rI-FABP-L72A with 1 to 5 mutations. Screening was conducted by comparing the fractional change in fluorescence intensity (ΔI/Io, where ΔI is the difference in probe intensity in the presence and absence of UCB and Io is the intensity in the absence of UCB) for the probes with that for ADIFAB2. This value was calculated for two emission wavelengths: 440 and 500 nm. […] The emitted fluorescence of these probes is quenched by binding of UCB.

[11] = Probe response to plasma samples from healthy adult donors, with and without 5 μM UCB
Protocol: The response of L2P14F7 to plasma samples from healthy adult donors, for which the UCBu concentration is expected to be about 1 nM or less, was measured (FIG. 5). Samples were diluted to 1% by volume in pH 7.4 HEPES buffer.

[12] = Titration of UCB and probe mixture with sodium oleate; assay type: binding; conditions: mixture of 0.5 μM UCB and 1 μM probe; after 1 μM total oleate added (FIG. 4)
Protocol: as §2

[13] = fluorescence response (R-Ro) relative to ADIFAB2
[14] = fluorescence response (R-Ro) relative to ADIFAB2, listed as L2P12G9
[15] = UCB, at 22° C., read-out: Kd (nM) at 22° C.
[16] = fluorescence response (R-Ro) relative to ADIFAB2, listed as L2P21C1

B1: L2P12 G9: acrylodan-labeled rI-FABP-L72A mutein: M18 L, G31 WT, F55 WT, A73 V (protein, UniProt P02693 2-132, looked up, variant M18L L72A A73V)
Fatty acid-binding protein, …: AFDGTWKVDRNENYEKFLEKMGINVVKRKLGAHDNLKLTITQEGNKFTVKESSNFRNIDVVFELGVDFAYSAVDGTELTGTWTMEGNKLVGKFKRVDNGKELIAVREISGNELIQTYTYEGVEAKRIFKKE
modifications: acrylodan label
notes: acrylodan-labeled rI-FABP-L72A mutein: M18 L, G31 WT, F55 WT, A73 V
phenotype (fatty acid response) relative to ADIFAB2 [1]: response only for AA and SA | ΔR/ΔRAD2 LNA [2]: 0.01 | ΔR/ΔRAD2 LNA ([2]; listed as L2P12G9): 0.0 | ΔR/ΔRAD2 OA [3]: 0.07 | ΔR/ΔRAD2 OA ([3]; listed as L2P12G9): 0.0 | ΔR/ΔRAD2 POA [4, 13]: −0.01 | ΔR/ΔRAD2 POA [4, 14]: 0.0 | ΔR/ΔRAD2 AA [5]: 0.54 | ΔR/ΔRAD2 AA ([5]; listed as L2P12G9): 0.5 | ΔR/ΔRAD2 LA [6]: −0.07 | ΔR/ΔRAD2 LA ([6]; listed as L2P12G9): −0.1 | ΔR/ΔRAD2 SA [7, 13]: 0.48 | ΔR/ΔRAD2 SA [7, 14]: 0.4 | ΔR/ΔRAD2 PA [8]: 0.03 | ΔR/ΔRAD2 PA ([8]; listed as L2P12G9): 0.0

B4: L2P21 C1: acrylodan-labeled rI-FABP-L72A mutein: M18 I, G31 Y, F55 WT, A73 V (protein, UniProt P02693 2-132, looked up, variant M18I G31Y L72A A73V)
Fatty acid-binding protein, …: B1 Fatty acid-binding protein, … with L18I, G31Y
modifications: acrylodan label
notes: acrylodan-labeled rI-FABP-L72A mutein: M18 I, G31 Y, F55 WT, A73 V
phenotype (fatty acid response) relative to ADIFAB2 [1]: greater response for all 7 FFA | ΔR/ΔRAD2 LNA [2]: 3.73 | ΔR/ΔRAD2 LNA ([2]; listed as L2P21C1): 3.1 | ΔR/ΔRAD2 OA [3]: 3.20 | ΔR/ΔRAD2 OA ([3]; listed as L2P21C1): 2.7 | ΔR/ΔRAD2 POA [4, 13]: 3.52 | ΔR/ΔRAD2 POA [4, 16]: 2.9 | ΔR/ΔRAD2 AA [5]: 3.27 | ΔR/ΔRAD2 AA ([5]; listed as L2P21C1): 2.8 | ΔR/ΔRAD2 LA [6]: 4.04 | ΔR/ΔRAD2 LA ([6]; listed as L2P21C1): 3.4 | ΔR/ΔRAD2 SA [7, 13]: 2.02 | ΔR/ΔRAD2 SA [7, 16]: 1.6 | ΔR/ΔRAD2 PA [8]: 2.54 | ΔR/ΔRAD2 PA ([8]; listed as L2P21C1): 2.0

Further lines, with some results ahead:

Kd [9, 15]: 390 nM
B2: L5P16 H4: UCB-responsive probe from rI-FABP-L72A; mutations 126K 73F 72A (protein, UniProt P02693 2-132, looked up, variant L72A A73F R126K)
Fatty acid-binding protein, …: B1 Fatty acid-binding protein, … with L18M, V73F, R126K
modifications: acrylodan label
notes: UCB-responsive probe from rI-FABP-L72A; mutations 126K 73F 72A
ΔI/Io 1:1 UCB:BSA 440 nm [10]: −0.69 | ΔI/Io 1:1 UCB:BSA 500 nm [10]: −0.64 | ΔI/Io 1:2 UCB:BSA 440 nm [10]: −0.37 | ΔI/Io 1:2 UCB:BSA 500 nm [10]: −0.31

Kd [9, 15]: 550 nM
B3: L2P22 B1: UCB-responsive probe from rI-FABP-L72A; mutations 18Y 31V 55V 72A (protein, UniProt P02693 2-132, looked up, variant M18Y G31V F55V L72A)
Fatty acid-binding protein, …: B1 Fatty acid-binding protein, … with L18Y, G31V, F55V, V73A
ΔI/Io 1:1 UCB:BSA 440 nm [10]: −0.70 | ΔI/Io 1:1 UCB:BSA 500 nm [10]: −0.68 | ΔI/Io 1:2 UCB:BSA 440 nm [10]: −0.36 | ΔI/Io 1:2 UCB:BSA 500 nm [10]: −0.35

Kd ([9]; non-linear fit to binding isotherm, 1 μM probe titrated with UCB (FIG. 3), read-out: Kd): 150 nM
B5: L2P14F7: UCB probe from rI-FABP-L72A; mutations 18G 31 M 72A (protein, UniProt P02693 2-132, looked up, variant M18G G31M L72A)
Fatty acid-binding protein, …: B1 Fatty acid-binding protein, … with L18G, G31M, V73A
modifications: fluorescent label
notes: UCB probe from rI-FABP-L72A; mutations 18G 31 M 72A
response to plasma samples ([11]; healthy adult donors, samples diluted to 1% by volume in pH 7.4 HEPES buffer): Little to no response | probe fluorescence after spiking plasma samples with UCB ([11]; samples A and B spiked with 5 μM UCB): substantial decrease in the fluorescence | response on titration with sodium oleate [12]: no change in response
